Reference: US9273364B2 (Kyoto University, priority 2010, dated 2016)

Tests used:
[1] = tested on: mouse FGFR2 exon 9 RNA probe (U1 and U2 snRNA binding); assay: In vitro exon-recognition assay, exon 9 probe; assay type: biochemical; conditions: HeLa nuclear extract, UV crosslinking
Procedure: (§1) A mutated DNA template of 3′ ss in intron 8 and 5′ ss in intron 9 was prepared from mutated reporter vectors as shown in FIG. 3A. The RNA substrates were labeled with ^32P by in vitro T7 transcription. In vitro splicing reaction and UV cross linking were performed under the conditions described by Sawa [Sawa H, Shimura Y (1992) Genes Dev 6: 244-254.]. To identify the shifted bands by UV cross linking, pre-heated cDNA oligo (10 microgram/mL) for U1 (5′-[…]-3′/SEQ ID NO:38) or U2 (5′-[…]-3′/SEQ ID NO:39) was added to the RNAs after UV cross linking, and the U1 or U2 cDNA oligo/RNAs mixture were digested with 50 U/mL of RNase H at 30 degrees C. for 10 min. In FIG. 5C, highly purified Flag-Fox2 and Flag-ESRP1 were added to RNAs and incubated at room temperature for 5 min before splicing reaction to examine their inhibitory or activating effects on exon recognition of U1 snRNA or U2 snRNA. After these reactions, RNAs were subjected to denaturing PAGE analysis and autoradiography.
(§2) Next, the present inventors tested whether Fox and/or ESRP cause switching from exon 9 to exon 8 through interruption of exon 9 recognition. The present inventors examined this under the in vitro splicing conditions using ^32P-labeled RNA probe of exon 9 with introns containing UGCAUG and ISE/ISS-3 sites (FIG. 10C, top panel) and the exon 8 RNA probe of same stretches. […]

[2] = tested on: mouse FGFR2 exon 8 RNA probe (U1 snRNA binding); assay: In vitro exon-recognition assay, exon 8 probe; assay type: biochemical; conditions: HeLa nuclear extract, UV crosslinking
Procedure: as §1, §2

Molecule	shifted bands by U1 and U2 snRNA [1]	suppressive or activating effect on exon recognition [2]
ESRP1 protein: highly purified recombinant Flag-ESRP1 added to RNAs before splicing reaction (protein, UniProt Q6NXG1 1-681, looked up, Flag tag) Epithelial splicing …: MTASPDYLVVLFGITAGATGAKLGSDEKELILLFWKVVDLANKKVGQLHEVLVRPDQLELTEDCKEETKIDVESLSSASQLDQALRQFNQSVSNELNIGVGTSFCLCTDGQLHVRQILHPEASKKNVLLPECFYSFFDLRKEFKKCCPGSPDIDKLDVATMTEYLNFEKSSSVSRYGASQVEDMGNIILAMISEPYNHRFSDPERVNYKFESGTCSKMELIDDNTVVRARGLPWQSSDQDIARFFKGLNIAKGGAALCLNAQGRRNGEALVRFVSEEHRDLALQRHKHHMGTRYIEVYKATGEDFLKIAGGTSNEVAQFLSKENQVIVRMRGLPFTATAEEVVAFFGQHCPITGGKEGILFVTYPDGRPTGDAFVLFACEEYAQNALRKHKDLLGKRYIELFRSTAAEVQQVLNRFSSAPLIPLPTPPIIPVLPQQFVPPTNVRDCIRLRGLPYAATIEDILDFLGEFATDIRTHGVHMVLNHQGRPSGDAFIQMKSADRAFMAAQKCHKKNMKDRYVEVFQCSAEEMNFVLMGGTLNRNGLSPPPCKLPCLSPPSYTFPAPAAVIPTEAAIYQPSVILNPRALQPSTAYYPAGTQLFMNYTAYYPSPPGSPNSLGYFPTAANLSGVPPQPGTVVRMQGLAYNTGVKEILNFFQGYQYATEDGLIHTNDQARTLPKEWVCI	decreased	not obvious
Fox2 protein: highly purified recombinant Flag-Fox2 added to RNAs before splicing reaction (protein, UniProt O43251 1-390, looked up, Flag tag) RNA binding protein fox-1 …: MQNEPLTPGYHGFPARDSQGNQEPTTTPDAMVQPFTTIPFPPPPQNGIPTEYGVPHTQDYAGQTGEHNLTLYGSTQAHGEQSSNSPSTQNGSLTTEGGAQTDGQQSQTQSSENSESKSTPKRLHVSNIPFRFRDPDLRQMFGQFGKILDVEIIFNERGSKGFGFVTFENSADADRAREKLHGTVVEGRKIEVNNATARVMTNKKMVTPYANGWKLSPVVGAVYGPELYAASSFQADVSLGNDAAVPLSGRGGINTYIPLISLPLVPGFPYPTAATTAAAFRGAHLRGRGRTVYGAVRAVPPTAIPAYPGVVYQDGFYGADLYGGYAAYRYAQPATATAATAAAAAAAAYSDGYGRVYTADPYHALAPAASYGVGAVASLYRGGYSRFAPY	decreased	not obvious
